Test results: PMC3229523, “Identification of Lactoferricin B Intracellular Targets Using an Escherichia coli Proteome Chip” (PLoS ONE, 2011)
Ends that are not written are not given here. * marks the point of attachment. Biotin = O=C1N[C@H]2[C@H](CS[C@H]2CCCCC(=O)*)N1

What was measured:
Assay in all cases: peptide or protein array; E. coli proteome chip: purified His-tagged proteins printed in duplicate on Fullmoon slides, blocked with 1% BSA; 10 nM N-terminal biotinylated LfcinB with 1% BSA, room temperature, 1 h; detected with DyLight 649-labeled streptavidin, ratio to DyLight 549-labeled anti-His antibody; ProCAT normalisation, local cut-off; triplicate chips
Conditions in all cases: both partners purified
[1] = target: T1, RfaZ (E. coli K-12, UniProt P27241 1-283)
T1 construct: RfaZ, E. coli K-12
T1 sequence (looked up): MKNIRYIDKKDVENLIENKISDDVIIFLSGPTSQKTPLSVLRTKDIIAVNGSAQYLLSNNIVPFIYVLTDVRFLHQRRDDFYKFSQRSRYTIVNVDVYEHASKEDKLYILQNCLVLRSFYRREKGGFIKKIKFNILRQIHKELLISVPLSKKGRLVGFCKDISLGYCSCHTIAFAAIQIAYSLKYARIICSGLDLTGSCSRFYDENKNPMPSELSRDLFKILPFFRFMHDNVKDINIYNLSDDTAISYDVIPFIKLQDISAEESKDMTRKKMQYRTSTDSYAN

[2] = target: T2, NrdD (E. coli K-12, UniProt P28903 1-712)
T2 construct: NrdD, ribonucleotide reductase family, E. coli K-12
T2 sequence (looked up): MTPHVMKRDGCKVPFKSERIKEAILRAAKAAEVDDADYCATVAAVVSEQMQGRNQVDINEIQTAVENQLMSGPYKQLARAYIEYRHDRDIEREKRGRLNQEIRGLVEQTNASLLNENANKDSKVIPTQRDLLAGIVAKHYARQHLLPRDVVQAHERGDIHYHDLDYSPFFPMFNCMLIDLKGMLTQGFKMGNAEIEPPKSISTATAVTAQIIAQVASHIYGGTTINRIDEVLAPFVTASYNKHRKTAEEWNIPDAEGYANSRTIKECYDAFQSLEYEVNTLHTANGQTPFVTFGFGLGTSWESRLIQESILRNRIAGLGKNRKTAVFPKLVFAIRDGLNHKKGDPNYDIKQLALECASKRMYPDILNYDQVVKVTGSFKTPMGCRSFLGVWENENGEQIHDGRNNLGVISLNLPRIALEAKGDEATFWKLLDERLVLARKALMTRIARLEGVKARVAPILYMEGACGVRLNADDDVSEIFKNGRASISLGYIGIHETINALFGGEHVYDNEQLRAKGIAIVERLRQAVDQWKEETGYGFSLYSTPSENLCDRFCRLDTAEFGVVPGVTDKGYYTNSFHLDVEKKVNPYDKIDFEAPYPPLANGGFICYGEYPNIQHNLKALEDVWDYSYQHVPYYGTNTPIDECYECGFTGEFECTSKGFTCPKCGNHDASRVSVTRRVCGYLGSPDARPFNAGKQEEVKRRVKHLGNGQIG

[3] = target: T3, PaaG (E. coli K-12, UniProt P77467 1-262)
T3 construct: PaaG, E. coli K-12
T3 sequence (looked up): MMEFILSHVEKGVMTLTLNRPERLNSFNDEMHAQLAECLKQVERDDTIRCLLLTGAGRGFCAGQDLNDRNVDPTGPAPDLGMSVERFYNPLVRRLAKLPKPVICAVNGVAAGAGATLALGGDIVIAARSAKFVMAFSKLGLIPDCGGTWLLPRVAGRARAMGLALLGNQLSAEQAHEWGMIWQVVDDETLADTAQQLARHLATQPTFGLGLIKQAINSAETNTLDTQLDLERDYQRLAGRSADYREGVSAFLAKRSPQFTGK

[4] = target: T4, CbpA (E. coli K-12, UniProt P36659 1-306)
T4 construct: CbpA, E. coli K-12
T4 sequence (looked up): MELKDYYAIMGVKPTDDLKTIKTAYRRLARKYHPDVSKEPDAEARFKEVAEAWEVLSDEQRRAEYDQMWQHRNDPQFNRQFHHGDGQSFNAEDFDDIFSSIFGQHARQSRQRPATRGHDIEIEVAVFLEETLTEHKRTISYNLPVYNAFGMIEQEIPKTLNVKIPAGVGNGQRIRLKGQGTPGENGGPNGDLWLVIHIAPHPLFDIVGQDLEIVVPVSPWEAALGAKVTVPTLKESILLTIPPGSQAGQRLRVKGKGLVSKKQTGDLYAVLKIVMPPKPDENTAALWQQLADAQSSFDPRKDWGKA

[5] = target: T5, GlyQ (E. coli K-12, UniProt P00960 1-303)
T5 construct: GlyQ, E. coli K-12
T5 sequence (looked up): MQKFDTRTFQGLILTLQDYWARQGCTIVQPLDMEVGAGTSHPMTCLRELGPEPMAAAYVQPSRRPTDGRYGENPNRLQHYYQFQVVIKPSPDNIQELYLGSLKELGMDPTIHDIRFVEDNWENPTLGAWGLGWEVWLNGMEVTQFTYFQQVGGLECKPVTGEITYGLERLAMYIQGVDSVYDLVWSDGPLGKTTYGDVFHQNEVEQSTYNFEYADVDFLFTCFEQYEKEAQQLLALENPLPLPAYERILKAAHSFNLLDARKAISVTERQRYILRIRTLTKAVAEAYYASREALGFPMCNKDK

Measured: binding result

B1: N-terminal biotinylated Lactoferricin B (peptide, UniProt P24627 36-60, looked up)
peptide: Biotin-FKCRRWQWRMKKLGAPSITCVRRAF
modifications: ends and bridges not checked
notes: lactoferricin B (LfcinB), cationic antimicrobial peptide of 25 amino acids; also called biotinylated LfcinB; biotin-labeled LfcinB; source: bought: Kelowna Inc
binds: [1] | [2] | [3] | [4] | [5]
